Test results reported in the RNAGym collection of RNA variant scans (doi:10.7554/elife.80360).

B1: HDV Ribozyme (parent)
chain: GGCCGGCAUGGUCCCAGCCUCCUCGCUGGCGCCGGCUGGGCAACAUUCCGAGGGGACCGUCCCCUCGGUAAUGGCGAAUGGGACCCA

Variants of: B1
Assay: self-cleavage, relative activity (ratio to wild type); higher = more cleavage; co-transcriptional

| Variant | self-cleavage |
| --- | --- |
| AGCCGGCAUGGUCCCAGCCUCCUCGCUGGCGCCGGCUGGGCAACAUUCCGAGGGGACCGUCCCCUCGGUAAUGGCGAAUGGGACCGA [G1A C86G] | 0.185 |
| GGCCGGCAUGCUCCCAGCCUCCUCGCUGGCGCCGGCUGGGCAACAUUCCGAGGGGACCGUCCCCUCGGUAAUGGUGAAUGGGACCCA [G11C C75U] | 0.185 |
| GGCCGGCAUGAUCCCAGCCUCCUCGCUGGCGCCGGCUGGGCAACAUUCCCAGGGGACCGUCCCCUCGGUAAUGGCGAAUGGGACCCA [G11A G50C] | 0.439 |
| GGCCGGCAUGGUCCCAGCCUCCUCGCUGGCGCCGGCUGGGCAACAUUCCGAGGGGACCGUCCCCUCGGUAAUGGCGAAUGGGACCGU [C86G A87U] | 0.965 |
| GGCCCGCAUGGUCCCAGCCUCCUCGCUGGCGCCGACUGGGCAACAUUCCGAGGGGACCGUCCCCUCGGUAAUGGCGAAUGGGACCCA [G5C G35A] | 0.113 |
| GGCCGGCAUGGUCCCAGCCUCCUCGCUGGCGCCGGCUGGGCAACAUUACGAGGGGACCGUCCCCUCGGUAAUGGCGAAUAGGACCCA [C48A G80A] | 0.293 |
| GGCCGGCAUGGUCCCAGCCUCCUCGCUGGAGCCGGCUGGGCAACAUUCCGAGGGGACCGUCCCCUCGGUAAUGGCGAAUGCGACCCA [C30A G81C] | 0.201 |
| GGCCGGCGUGGUCCCAGCCUCCUCGCUGGCGCCGGCUGGGCAACAUUCCGAGGGGACCGUCCCCUCUGUAAUGGCGAAUGGGACCCA [A8G G67U] | 0.978 |
| GGCCGGCAUGGUCUCAGCCUCCUCGUUGGCGCCGGCUGGGCAACAUUCCGAGGGGACCGUCCCCUCGGUAAUGGCGAAUGGGACCCA [C14U C26U] | 1.07 |
| GGCCGGCAUGGUCCCAGCCUCCUCGCUAGCGCCGGCUCGGCAACAUUCCGAGGGGACCGUCCCCUCGGUAAUGGCGAAUGGGACCCA [G28A G38C] | 0.0978 |
| GGCCGGCAUGGUCCCAGCCUCCUCGCUGACGCCGGCUGGGCAACAUUCCGAGGGGUCCGUCCCCUCGGUAAUGGCGAAUGGGACCCA [G29A A56U] | 0.111 |
| GGCCGGCAUGGUCCCAGCCUCCUCGCUGGUGCCGGCUGGGCAACAUCCCGAGGGGACCGUCCCCUCGGUAAUGGCGAAUGGGACCCA [C30U U47C] | 0.401 |
| GGCCGGCAUGGUCCCAGCCUCCUCGCUGGCGCCGGCUGGGCAAUAUUCCGAGGGGACCUUCCCCUCGGUAAUGGCGAAUGGGACCCA [C44U G59U] | 0.854 |
| GGCCGGCAUGGUCCCAGCCUCGUCGCUGGCGCCGGCUGGGCAACAUUCCGAGGGGACCGUACCCUCGGUAAUGGCGAAUGGGACCCA [C22G C61A] | 0.145 |
| GGCUGGCAUGGUCCCAGCCUCCUCGCUGGCGCCGGCUGGGCAACAUUCCGAGGGGACCGUCCCCUCGGUAGUGGCGAAUGGGACCCA [C4U A71G] | 0.643 |
| GGCCGGCAUGGUCCCAGCCUUCUCGCUGGCGCCGGCUGGGCAACAUUCCGUGGGGACCGUCCCCUCGGUAAUGGCGAAUGGGACCCA [C21U A51U] | 0.308 |
| GGCCGGCAUGGUCCCAGCCUCCUCGCUGGCGCCGGUUGGGCAACAUUCCAAGGGGACCGUCCCCUCGGUAAUGGCGAAUGGGACCCA [C36U G50A] | 0.673 |
| GGCCGGCAUGGUCCCAGCCUCCUCGCAGGCGCCGGCUGGGCAACAUUCCGAGGGGACCGUCCCCUCGGUCAUGGCGAAUGGGACCCA [U27A A70C] | 0.782 |
| GGCCGGCAUGGUCCCAGCCUCCUCGCUGGCGCCGGCUGGGCAACAUUCCGAGGGGACCGUCCCCUCGGUAAUUGCGAAUGGGACCCC [G73U A87C] | 0.385 |
| GGCCGGCAUGGUCCCAGCCUCCUCGCUGGCGCCGGCUGGGCGACAUUCCGAGGGGACCGUCCCCUCGGUAAAGGCGAAUGGGACCCA [A42G U72A] | 0.369 |
| GGCCGGCAUGGUCCCAGCCUCCUCGCUGGCGCCGGGUGGGCAACACUCCGAGGGGACCGUCCCCUCGGUAAUGGCGAAUGGGACCCA [C36G U46C] | 0 |
| GGCCGGCAUGGUCCCAGACUCCUCGCUGGCGCCGGCUGGGCAACAUUCCGAGGGGACCGUCCCCUCGGUAAUGGCGAUUGGGACCCA [C18A A78U] | 0.128 |

| Variant | self-cleavage |
| --- | --- |
| GGCCGGCAUGGUCCCAGCCUCCUCGCUGGCGCCGGCUGGGCAUCAUUCCGAGGGCACCGUCCCCUCGGUAAUGGCGAAUGGGACCCA [A43U G55C] | 0.399 |
| GGCCGGCAUGGUCCCAGCCUCCUCGCUGGCGCUGGCUAGGCAACAUUCCGAGGGGACCGUCCCCUCGGUAAUGGCGAAUGGGACCCA [C33U G38A] | 0.172 |
| GGCCGGCAUGGUCCCAGCCUCCUCGCUGGCGCCGGCUGGGCAACUUUCCGAGGGGACCGUCCCCUCGGUGAUGGCGAAUGGGACCCA [A45U A70G] | 0.808 |
| GGCCGGCAUGGUCCCAGCCUCCUCGCUGGCGCCGGCUGGGCAACAUUCCGAGGGGACCGUCCCCUCGGUAAUGGCCAAUGGGAGCCA [G76C C84G] | 0.618 |
| GGCCGGCAUGGUCCCAGCCUCCUCGCUGGCGCCGGCUGGGCAACAUUCCGAGGGGACCGUCCCCACGGUAAUGGCUAAUGGGACCCA [U65A G76U] | 1.04 |
| GGCCGGCAUGGUCCCAGCCUCCUCGCUGGCGCCGGCUGUGCAACAUUCCGAGGGGACCGCCCCCUCGGUAAUGGCGAAUGGGACCCA [G39U U60C] | 0.772 |
| GGCCGGCAUGGUCCCAGCCUCCUCGCUGGCGCCGGCUGGGCAUCAUUCCGACGGGACCGUCCCCUCGGUAAUGGCGAAUGGGACCCA [A43U G52C] | 0.743 |
| GGCCGGCAUGGUCCCAGCCUCCUCGCGGACGCCGGCUGGGCAACAUUCCGAGGGGACCGUCCCCUCGGUAAUGGCGAAUGGGACCCA [U27G G29A] | 0.283 |
| GGUCGGCAUGGUCCCAGCCUCCUCGCUGGCGCCGGCUGGGCAACAUUCCGAGGGGACCGUCCCCUCGGUAAUGACGAAUGGGACCCA [C3U G74A] | 0.245 |
| GGCCGGCAUGGUCCCAGCCUCCUCGCUGGCGCCGGUUGGGCAACAUUCUGAGGGGACCGUCCCCUCGGUAAUGGCGAAUGGGACCCA [C36U C49U] | 0.743 |
| GGCCGGCAUGGUCCCAGCCUCCUCGCUGGCGCCGGCUGGGCGACAUUCCGAGGGGACCGUCCCCUCGGUCAUGGCGAAUGGGACCCA [A42G A70C] | 0.798 |
| GGCCGGCAUGGUCCCAGCCUCCUCGCUGGCGCCGGGUGGGCAACAUUCCGAGGGGAUCGUCCCCUCGGUAAUGGCGAAUGGGACCCA [C36G C57U] | 0.128 |
| GGCCGGCAUGGUCCCAGCCUCCUCGCUGGCGCCGGCUGGGCAACAUUCCGAGGGGACCGUCCCCUCGGUAAUGGCGAAUGGCACCUA [G82C C86U] | 0.285 |
| GGCCGGCAUGUUCCCAGCCUCCUCGCUAGCGCCGGCUGGGCAACAUUCCGAGGGGACCGUCCCCUCGGUAAUGGCGAAUGGGACCCA [G11U G28A] | 0.0219 |
| GGCCGGCAUGGUCCCAGCCUCCUCGCUGGCGCCGGCUGGGCAACAUUCCGAGGGGACCGUCCCCUCGGUAAUGUAGAAUGGGACCCA [G74U C75A] | 0.228 |
| GGCCGUCAUGGUCCCAGCCUCCUCGCUGGCGCCGGCGGGGCAACAUUCCGAGGGGACCGUCCCCUCGGUAAUGGCGAAUGGGACCCA [G6U U37G] | 0.0554 |
| GGCCGGCAUGGUCCCAGCCACCUCGCUGGCGCCGGCUGGGCAACAUUCCGAGGGGACCGUCCCCCCGGUAAUGGCGAAUGGGACCCA [U20A U65C] | 0.0639 |
| GGCCGGCAUGGUCCCAGUCUCCUCGCUGGCGCCGGCUGGGCAACAUUCGGAGGGGACCGUCCCCUCGGUAAUGGCGAAUGGGACCCA [C18U C49G] | 0.723 |
| GGCCGGCAUGGUCCCAGCCUCCUCGCUGGCGCCCGCUGGGCAACAUUCCGAGGGGACCGUCCCCUCGGUAAUGGCGAAUGCGACCCA [G34C G81C] | 0.115 |
| GGCCGGCAUGGUCCCAGCCUCCUCGCUGGCGCGGGCUGGGCAACAUUCCGAGGGGACCGUCCCCUCGGGAAUGGCGAAUGGGACCCA [C33G U69G] | 0.123 |
| GGCCGGCAUGGUCCCAGCCUCCUCGCUGGCGCCGGCUGAGCAACAUUCCGAGGGGACCGUCCCCGCGGUAAUGGCGAAUGGGACCCA [G39A U65G] | 0.264 |
| GGCCGGCAUUGUCCCAGCCUCCUCGCUGGCGCCGGCUGGGCAACAUUCCGAGGGGACCGUCCCCUCGGUAAAGGCGAAUGGGACCCA [G10U U72A] | 0.277 |

| Variant | self-cleavage |
| --- | --- |
| GGCCUGCAUGGUCCCAGCCUCCUCGCUGGCGCCGGCUGGGCAACAUUCCGAGGGGACCGUCCCCUCGGUAAAGGCGAAUGGGACCCA [G5U U72A] | 0.128 |
| GGCCGGCAUGGUCCCAGCCUCCUCGCUGGCGCCGGCUGGGCAACAUUCCGAGGGGUCCGUCCCCUCGGUAAUGCCGAAUGGGACCCA [A56U G74C] | 0.317 |
| GGCCUGCAUGGUCCCAGCCUCCUCGCUGGCGCCGGCUGGGCAACAUUCCGAGGGGACUGUCCCCUCGGUAAUGGCGAAUGGGACCCA [G5U C58U] | 0.277 |
| GGCCGGCAUGGUCCCAGACUCCUCGCUGGCGCCGGCGGGGCAACAUUCCGAGGGGACCGUCCCCUCGGUAAUGGCGAAUGGGACCCA [C18A U37G] | 0.185 |
| GGCCGGCAUGGUCCCAGACUCCUCGCUGGCGCCGGCAGGGCAACAUUCCGAGGGGACCGUCCCCUCGGUAAUGGCGAAUGGGACCCA [C18A U37A] | 0.0462 |
| GGCCGGCAUGGUCCCAGCCUCCUCGCUGGCGCCGGCUGGGCAACACUCCGAGGGGACCGUCCCCUCGGUAAUGGAGAAUGGGACCCA [U46C C75A] | 0.0536 |
| GGCCGGCAUGGUCCCAGCCUCCUCGCUGGCGCCGGCUGGGCAACAUUCCGAGGGGACCGUCCCCUCGGUAAUCGCGAAUGAGACCCA [G73C G81A] | 0.0817 |
| GGCCGGCAUGGUCCCAGACUUCUCGCUGGCGCCGGCUGGGCAACAUUCCGAGGGGACCGUCCCCUCGGUAAUGGCGAAUGGGACCCA [C18A C21U] | 0.089 |
| GGCCGGCAUGGUCACAGCCUCCUCGCUGGCGCCGGCUGGGCAACAUUCCGAGGGGACCGUCCCCUGGGUAAUGGCGAAUGGGACCCA [C14A C66G] | 0.57 |
| GGCCGGCACGGUCCCAGCCUCCUCGCUGGCGCCGGCUGGGCAACUUUCCGAGGGGACCGUCCCCUCGGUAAUGGCGAAUGGGACCCA [U9C A45U] | 0.554 |
| GGCCGGCAUGGUCCCAGCCUCCGCGCUGGCGCCGGCUGGGCAACAUUCCGAGGGGACCGUCCCCUCGGUAAUGACGAAUGGGACCCA [U23G G74A] | 0.0489 |
| GGCCGUCAUGGUCCCAGCCUCCUCGCUGGCGCCGGCUGGGCAACAUUCCGAGGGGACCGUCCUCUCGGUAAUGGCGAAUGGGACCCA [G6U C63U] | 0.763 |
| GGCCGGCAUGUUCCCAGCCUCCUCGUUGGCGCCGGCUGGGCAACAUUCCGAGGGGACCGUCCCCUCGGUAAUGGCGAAUGGGACCCA [G11U C26U] | 0.847 |
| GGCCGGCAUGGUCCCAGCCUCCUCGCUGGCGCCGGCUGGGCAACAUUCCGCGGGGUCCGUCCCCUCGGUAAUGGCGAAUGGGACCCA [A51C A56U] | 1.05 |
| GGCCGGCAUGGUCCCAGCCUCCUCGCUGGCGCCGGCUGGCCAGCAUUCCGAGGGGACCGUCCCCUCGGUAAUGGCGAAUGGGACCCA [G40C A43G] | 0.136 |
| GGCCGGCAUGGUCCCAGCCUCCUCGCUGGCGCCGGCUGGGCAAAAUUCCGAGGGGACCAUCCCCUCGGUAAUGGCGAAUGGGACCCA [C44A G59A] | 0.762 |
| GGCCGGCAUGGUCUCAGCCUCCUCGCUGGCGCCGGCUGGGCAACAUUCCGAGGGGACCGUCCCCUCGGUAAUGGCGAAUAGGACCCA [C14U G80A] | 0.486 |
| GGCCGGCAUGGUCCCAGCCUCCUCGCUGGCGCCGGCUGGGCAACAUUCCGAGAGGACCGUCCCCUCGGUAAUCGCGAAUGGGACCCA [G53A G73C] | 0.265 |
| GGCCGGCAUGGUCCCAGCCUCCUCGCUUGCGCCGGCUGGGCAACAUUCCGAGGGGACCGUCCACUCGGUAAUGGCGAAUGGGACCCA [G28U C63A] | 0.0978 |
| GGCCGGCAUGGUCCCAGCCUCCUCGCUGGCGCCGGCUGGGCAACAUUCCGAGGGGGCCCUCCCCUCGGUAAUGGCGAAUGGGACCCA [A56G G59C] | 1.3 |
